Here are results for 19 molecules from US20220402985A1.

“And” between values parts separate entries of the source, which are not always exact repeats. Equal values may be shown once.

Experiment [1] deals with ErbB3 on rat Schwann cells (rat) (UniProt Q62799). The experiment can be described thus: cell-based or functional assay.
Experiment [2] concerns the target ErbB4 on neonatal rat cardiomyocytes (rat) (UniProt Q62956). Nature of the experiment: cell-based or functional assay.

Chain of ErbB3 on rat Schwann cells (rat) (Q62799 20-1339): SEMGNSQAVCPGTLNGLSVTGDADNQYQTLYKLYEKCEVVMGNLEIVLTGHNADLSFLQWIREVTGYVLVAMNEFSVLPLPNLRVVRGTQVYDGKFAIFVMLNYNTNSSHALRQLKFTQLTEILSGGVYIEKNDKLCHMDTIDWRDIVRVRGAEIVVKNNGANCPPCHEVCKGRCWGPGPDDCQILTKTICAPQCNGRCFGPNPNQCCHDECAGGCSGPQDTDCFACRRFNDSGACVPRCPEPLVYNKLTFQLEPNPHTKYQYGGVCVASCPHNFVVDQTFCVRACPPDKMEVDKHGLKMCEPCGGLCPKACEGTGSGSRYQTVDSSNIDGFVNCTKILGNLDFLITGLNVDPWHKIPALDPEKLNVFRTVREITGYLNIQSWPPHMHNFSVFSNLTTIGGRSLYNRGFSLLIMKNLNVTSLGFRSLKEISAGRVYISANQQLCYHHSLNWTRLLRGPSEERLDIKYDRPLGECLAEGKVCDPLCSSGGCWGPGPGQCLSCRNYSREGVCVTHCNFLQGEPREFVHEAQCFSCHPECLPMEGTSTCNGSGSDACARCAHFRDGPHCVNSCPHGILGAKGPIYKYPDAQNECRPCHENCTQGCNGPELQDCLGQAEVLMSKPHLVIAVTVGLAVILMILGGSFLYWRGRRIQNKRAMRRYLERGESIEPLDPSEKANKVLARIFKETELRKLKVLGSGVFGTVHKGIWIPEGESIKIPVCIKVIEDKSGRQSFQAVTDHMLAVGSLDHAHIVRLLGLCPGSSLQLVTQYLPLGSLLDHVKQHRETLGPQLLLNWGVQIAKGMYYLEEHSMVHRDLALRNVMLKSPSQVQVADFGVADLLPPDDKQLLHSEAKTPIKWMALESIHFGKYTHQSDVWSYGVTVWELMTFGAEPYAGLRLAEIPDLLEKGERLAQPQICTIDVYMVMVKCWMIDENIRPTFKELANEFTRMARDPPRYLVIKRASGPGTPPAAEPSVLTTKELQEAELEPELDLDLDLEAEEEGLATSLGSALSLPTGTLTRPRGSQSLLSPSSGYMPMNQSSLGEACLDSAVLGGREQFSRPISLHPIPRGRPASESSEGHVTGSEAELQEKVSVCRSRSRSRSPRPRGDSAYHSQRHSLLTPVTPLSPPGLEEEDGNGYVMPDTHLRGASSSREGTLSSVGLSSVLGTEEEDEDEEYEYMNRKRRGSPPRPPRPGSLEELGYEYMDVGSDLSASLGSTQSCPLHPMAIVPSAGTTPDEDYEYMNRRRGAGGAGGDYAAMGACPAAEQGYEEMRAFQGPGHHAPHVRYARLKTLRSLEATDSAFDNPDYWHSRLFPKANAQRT
Chain of ErbB4 on neonatal rat cardiomyocytes (rat) (Q62956 26-1308): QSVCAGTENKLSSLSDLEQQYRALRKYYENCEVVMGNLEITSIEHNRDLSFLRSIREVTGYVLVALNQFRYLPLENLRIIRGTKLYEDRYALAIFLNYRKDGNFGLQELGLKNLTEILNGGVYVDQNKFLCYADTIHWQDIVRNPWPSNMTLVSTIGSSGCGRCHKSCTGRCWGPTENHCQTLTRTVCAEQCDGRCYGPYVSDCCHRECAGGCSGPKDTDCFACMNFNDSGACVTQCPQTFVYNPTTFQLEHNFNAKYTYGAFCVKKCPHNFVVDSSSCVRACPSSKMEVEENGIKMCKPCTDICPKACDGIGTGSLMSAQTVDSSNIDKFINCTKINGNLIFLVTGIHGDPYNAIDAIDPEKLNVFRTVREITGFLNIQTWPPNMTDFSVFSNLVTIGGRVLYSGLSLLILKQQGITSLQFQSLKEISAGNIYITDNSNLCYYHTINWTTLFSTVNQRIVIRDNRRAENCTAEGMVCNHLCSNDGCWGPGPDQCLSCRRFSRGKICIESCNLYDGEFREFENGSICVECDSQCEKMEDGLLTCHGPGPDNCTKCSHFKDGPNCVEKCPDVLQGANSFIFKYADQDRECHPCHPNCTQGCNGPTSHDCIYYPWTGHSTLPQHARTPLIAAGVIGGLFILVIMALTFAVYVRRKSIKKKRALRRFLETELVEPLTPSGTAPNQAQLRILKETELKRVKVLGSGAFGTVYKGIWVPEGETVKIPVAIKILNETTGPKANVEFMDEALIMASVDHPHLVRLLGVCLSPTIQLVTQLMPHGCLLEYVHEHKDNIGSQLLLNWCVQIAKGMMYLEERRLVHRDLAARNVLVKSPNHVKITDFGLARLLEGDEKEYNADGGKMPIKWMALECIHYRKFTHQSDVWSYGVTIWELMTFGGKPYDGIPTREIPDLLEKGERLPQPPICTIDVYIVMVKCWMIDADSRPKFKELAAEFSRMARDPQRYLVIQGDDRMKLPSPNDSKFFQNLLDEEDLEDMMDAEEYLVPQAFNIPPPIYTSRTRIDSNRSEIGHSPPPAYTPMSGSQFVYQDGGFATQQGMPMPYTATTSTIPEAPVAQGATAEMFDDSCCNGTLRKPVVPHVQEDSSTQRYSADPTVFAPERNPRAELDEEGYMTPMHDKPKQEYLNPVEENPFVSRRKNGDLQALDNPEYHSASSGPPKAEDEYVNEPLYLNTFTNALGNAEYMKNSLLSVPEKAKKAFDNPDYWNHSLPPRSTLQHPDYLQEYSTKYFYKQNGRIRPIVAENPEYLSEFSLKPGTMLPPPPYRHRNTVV

B1: huNRG1(S177-F229) 6xHis (ligand)
chain: SHLVKCAEKEKTFCVNGGECFMVKDLSNPSRYLCKCPNEFTGDRCQNYVMASFGGGGEGGGGAGGGGHHHHHH
B1 had a Schwann cells (SC) (ErbB3) Avg EC50 in experiment [1] of 0.00362 µM. In experiment [2], the CM % Agonism AVG stood at 97.5%, the Cardiomyocyte (CM) (ErbB4) Avg EC50 came to 586 pM and the Selectivity SC/CM was determined as 6.17.

B2: huNRG1(S177-F229)(NRGE1D)::1KmodT482V, M493L)::huFcSEFL2 (Pb) (Fc fusion)
chain: SHLVKCGESHKSFCVNGGECYMVEGSSIPSRYLCKCPNEFTGDRCQEDFMASFGSGSATGGSGSVASSGSGSATHLDKTHTCPPCPAPELLGGPSVFLFPPKPKDTLMISRTPEVTCVVVDVSHEDPEVKFNWYVDGVEVHNAKTKPCEEQYGSTYRCVSVLTVLHQDWLNGKEYKCKVSNKALPAPIEKTISKAKGQPREPQVYTLPPSREEMTKNQVSLTCLVKGFYPSDIAVEWESNGQPENNYKTTPPVLDSDGSFFLYSKLTVDKSRWQQGNVFSCSVMHEALHNHYTQKSLSLSPGK
B2 displayed a Schwann cells (SC) (ErbB3) Avg EC50 in experiment [1] greater than 10 µM. In experiment [2], this molecule returned a CM % Agonism AVG of 83.4%, a Cardiomyocyte (CM) (ErbB4) Avg EC50 of 340 pM and a Selectivity SC/CM greater than 10000.

B3: huNRG1(S177-Q237)(NRGE1L)::GG::huFcSEFL2 (Pb) (Fc fusion)
chain: SHLVKCGESHKSFCVNGGECYMVEGSSIPSRYLCKCPNEFTGDRCQDDFMASFYKAEELYQGGDKTHTCPPCPAPELLGGPSVFLFPPKPKDTLMISRTPEVTCVVVDVSHEDPEVKFNWYVDGVEVHNAKTKPCEEQYGSTYRCVSVLTVLHQDWLNGKEYKCKVSNKALPAPIEKTISKAKGQPREPQVYTLPPSREEMTKNQVSLTCLVKGFYPSDIAVEWESNGQPENNYKTTPPVLDSDGSFFLYSKLTVDKSRWQQGNVFSCSVMHEALHNHYTQKSLSLSPGK
Turning to B3, in experiment [1], the Schwann cells (SC) (ErbB3) Avg EC50 was greater than 10 µM. In experiment [2], the CM % Agonism AVG is 74%, the Cardiomyocyte (CM) (ErbB4) Avg EC50 is 2290 pM and the Selectivity SC/CM is greater than 4370.

B4: huNRG1(S177-Q237)(NRGE1O)::GG::huFcSEFL2 (Pb) (Fc fusion)
chain: SHLVKCGEKHKSFCVNGGECYMVEGSSIPSRYLCKCPNEFTGDRCQDFFMASFYKAEELYQGGDKTHTCPPCPAPELLGGPSVFLFPPKPKDTLMISRTPEVTCVVVDVSHEDPEVKFNWYVDGVEVHNAKTKPCEEQYGSTYRCVSVLTVLHQDWLNGKEYKCKVSNKALPAPIEKTISKAKGQPREPQVYTLPPSREEMTKNQVSLTCLVKGFYPSDIAVEWESNGQPENNYKTTPPVLDSDGSFFLYSKLTVDKSRWQQGNVFSCSVMHEALHNHYTQKSLSLSPGK
B4: the Schwann cells (SC) (ErbB3) Avg EC50 in experiment [1] was determined as 0.546 µM. For the same molecule, in experiment [2], the CM % Agonism AVG was 27%, the Cardiomyocyte (CM) (ErbB4) Avg EC50 is 1040 pM and the Selectivity SC/CM was 526.

B5: huNRG1(S177-Q237)(NRGE1M)::GG::huFcSEFL2 (Pb) (Fc fusion)
chain: SHLVKCGENDKSFCVNGGECFMIEGPSNPSRYLCKCPNEFTGDRCQDFFMASFYKAEELYQGGDKTHTCPPCPAPELLGGPSVFLFPPKPKDTLMISRTPEVTCVVVDVSHEDPEVKFNWYVDGVEVHNAKTKPCEEQYGSTYRCVSVLTVLHQDWLNGKEYKCKVSNKALPAPIEKTISKAKGQPREPQVYTLPPSREEMTKNQVSLTCLVKGFYPSDIAVEWESNGQPENNYKTTPPVLDSDGSFFLYSKLTVDKSRWQQGNVFSCSVMHEALHNHYTQKSLSLSPGK
As for B5, the Schwann cells (SC) (ErbB3) Avg EC50 in experiment [1] worked out at 1.01 µM. Further, in experiment [2], the CM % Agonism AVG came out at 30%, the Cardiomyocyte (CM) (ErbB4) Avg EC50 was 25600 pM and the Selectivity SC/CM is 39.

B6: huNRG1(S177-Q237)(NRGE1N)::GG::huFcSEFL2 (Pb) (Fc fusion)
chain: SHLVKCGENDKSFCVNGGECYMVEGSSIPSRYLCKCPNEFTGDRCQDFFMASFYKAEELYQGGDKTHTCPPCPAPELLGGPSVFLFPPKPKDTLMISRTPEVTCVVVDVSHEDPEVKFNWYVDGVEVHNAKTKPCEEQYGSTYRCVSVLTVLHQDWLNGKEYKCKVSNKALPAPIEKTISKAKGQPREPQVYTLPPSREEMTKNQVSLTCLVKGFYPSDIAVEWESNGQPENNYKTTPPVLDSDGSFFLYSKLTVDKSRWQQGNVFSCSVMHEALHNHYTQKSLSLSPGK
Consider B6, for which the Schwann cells (SC) (ErbB3) Avg EC50 in experiment [1] turned out to be 0.751 µM. In experiment [2], this molecule displayed a CM % Agonism AVG of 26%, a Cardiomyocyte (CM) (ErbB4) Avg EC50 of 1730 pM and a Selectivity SC/CM of 435.

B7: huNRG1(S177-Q237)(NRGE1P)::GG::huFcSEFL2 (Pb) (Fc fusion)
chain: SHLVKCAESHKSFCVNGGECFMIEGPSNPSRYLCKCPNEFTGDRCQDFFMASFYKAEELYQGGDKTHTCPPCPAPELLGGPSVFLFPPKPKDTLMISRTPEVTCVVVDVSHEDPEVKFNWYVDGVEVHNAKTKPCEEQYGSTYRCVSVLTVLHQDWLNGKEYKCKVSNKALPAPIEKTISKAKGQPREPQVYTLPPSREEMTKNQVSLTCLVKGFYPSDIAVEWESNGQPENNYKTTPPVLDSDGSFFLYSKLTVDKSRWQQGNVFSCSVMHEALHNHYTQKSLSLSPGK
In experiment [1], B7 displayed a Schwann cells (SC) (ErbB3) Avg EC50 of 0.51 µM. For the same molecule, in experiment [2], the CM % Agonism AVG came to 28%, the Cardiomyocyte (CM) (ErbB4) Avg EC50 was determined as 2220 pM and the Selectivity SC/CM came to 229.

B8: huNRG1(S177-Q237)(1D3)::GG::huFcSEFL2 (Pb) (Fc fusion)
chain: SHLVKCGENDKSFCVNGGECFVIEDPSIPSRYLCKCPNEFTGDRCQNDFLASFYKAEELYQGGDKTHTCPPCPAPELLGGPSVFLFPPKPKDTLMISRTPEVTCVVVDVSHEDPEVKFNWYVDGVEVHNAKTKPCEEQYGSTYRCVSVLTVLHQDWLNGKEYKCKVSNKALPAPIEKTISKAKGQPREPQVYTLPPSREEMTKNQVSLTCLVKGFYPSDIAVEWESNGQPENNYKTTPPVLDSDGSFFLYSKLTVDKSRWQQGNVFSCSVMHEALHNHYTQKSLSLSPGK
B8: the Schwann cells (SC) (ErbB3) Avg EC50 in experiment [1] is > 10 µM and 10 µM. In experiment [2], the CM % Agonism AVG worked out at 78%; the Cardiomyocyte (CM) (ErbB4) Avg EC50 is 1620 pM and 772 pM; the Selectivity SC/CM was greater than 10000.

B9: huNRG1(S177-F229)(NRGE1C) 6xHis (ligand)
chain: SHLVKCGEKHKSFCVNGGECFMIEGPSNPSRYLCKCPNEFTGDRCQEDFMASFGGGGEGGGGAGGGGHHHHHH
In experiment [1], B9 came in with a Schwann cells (SC) (ErbB3) Avg EC50 of 10 µM. Further, in experiment [2], the CM % Agonism AVG is 106%, the Cardiomyocyte (CM) (ErbB4) Avg EC50 amounted to 1440 pM and the Selectivity SC/CM was greater than 10000.

B10: huNRG1(S177-F229)(NRGE1D) (E47T_D48S_F49L_M50L) 6xHis (ligand)
chain: SHLVKCGESHKSFCVNGGECYMVEGSSIPSRYLCKCPNEFTGDRCQTSLLASFGGGGEGGGGAGGGGHHHHHH
Turning to B10, the Schwann cells (SC) (ErbB3) Avg EC50 in experiment [1] came to 10 µM. In experiment [2], this molecule came in with a CM % Agonism AVG of 99.8%, a Cardiomyocyte (CM) (ErbB4) Avg EC50 of 330 pM and a Selectivity SC/CM greater than 10000.

B11: huNRG1(S177-F229)(NRGE1D) (E47V_D48T_F49R_M50L) 6xHis (ligand)
chain: SHLVKCGESHKSFCVNGGECYMVEGSSIPSRYLCKCPNEFTGDRCQVTRLASFGGGGEGGGGAGGGGHHHHHH
Turning to B11, the Schwann cells (SC) (ErbB3) Avg EC50 in experiment [1] came out at 10 µM. In experiment [2], this molecule displayed a CM % Agonism AVG of 98%, a Cardiomyocyte (CM) (ErbB4) Avg EC50 of 224 pM and a Selectivity SC/CM greater than 10000.

B12: huNRG1(S177-F229)(NRGE1C) (E47S_D48T_F49R_M50V) 6xHis (ligand)
chain: SHLVKCGEKHKSFCVNGGECFMIEGPSNPSRYLCKCPNEFTGDRCQSTRVASFGGGGEGGGGAGGGGHHHHHH
As to B12, in experiment [1], the Schwann cells (SC) (ErbB3) Avg EC50 is 10 µM. In experiment [2], the CM % Agonism AVG was 87.5%, the Cardiomyocyte (CM) (ErbB4) Avg EC50 worked out at 580 pM and the Selectivity SC/CM was greater than 10000.

B13: huNRG1(S177-F229)(NRGE1C) (D48T_F49Q_M50I) 6xHis (ligand)
chain: SHLVKCGEKHKSFCVNGGECFMIEGPSNPSRYLCKCPNEFTGDRCQETQIASFGGGGEGGGGAGGGGHHHHHH
On to B13, for which the Schwann cells (SC) (ErbB3) Avg EC50 in experiment [1] was found to be 10 µM. In experiment [2], this molecule yielded a CM % Agonism AVG of 106%, a Cardiomyocyte (CM) (ErbB4) Avg EC50 of 712 pM and a Selectivity SC/CM greater than 10000.

B14: huNRG1(S177-F229)(NRGE1D) (E47K_D48L_F49D_M50I) 6xHis (ligand)
chain: SHLVKCGESHKSFCVNGGECYMVEGSSIPSRYLCKCPNEFTGDRCQKLDIASFGGGGEGGGGAGGGGHHHHHH
For B14, the Schwann cells (SC) (ErbB3) Avg EC50 in experiment [1] amounted to 0.0172 µM. In experiment [2], this molecule registered a CM % Agonism AVG of 91.7%, a Cardiomyocyte (CM) (ErbB4) Avg EC50 of 311 pM and a Selectivity SC/CM of 55.4.

B15: huNRG1(S177-F229)(NRGE1C) (E47S_D48A_F49L_M50T) 6xHis (ligand)
chain: SHLVKCGEKHKSFCVNGGECFMIEGPSNPSRYLCKCPNEFTGDRCQSALTASFGGGGEGGGGAGGGGHHHHHH
In the case of B15, the Schwann cells (SC) (ErbB3) Avg EC50 in experiment [1] worked out at 10 µM. In experiment [2], this molecule came in with a CM % Agonism AVG of 85.9%, a Cardiomyocyte (CM) (ErbB4) Avg EC50 of 695 pM and a Selectivity SC/CM greater than 10000.

B16: huNRG1(S177-F229)(NRGE1C) (E47K_D48T_F49S_M50L) 6xHis (ligand)
chain: SHLVKCGEKHKSFCVNGGECFMIEGPSNPSRYLCKCPNEFTGDRCQKTSLASFGGGGEGGGGAGGGGHHHHHH
For B16, the Schwann cells (SC) (ErbB3) Avg EC50 in experiment [1] was 10 µM. In experiment [2], this molecule yielded a CM % Agonism AVG of 91.8%, a Cardiomyocyte (CM) (ErbB4) Avg EC50 of 825 pM and a Selectivity SC/CM greater than 10000.

B17: huNRG1(S177-F229)(NRGE1D) 6xHis (ligand)
chain: SHLVKCGESHKSFCVNGGECYMVEGSSIPSRYLCKCPNEFTGDRCQEDFMASFGGGGEGGGGAGGGGHHHHHH
In experiment [1], B17 had a Schwann cells (SC) (ErbB3) Avg EC50 of 10 µM. In experiment [2], this molecule came in with a CM % Agonism AVG of 90.7%, a Cardiomyocyte (CM) (ErbB4) Avg EC50 of 390 pM and a Selectivity SC/CM greater than 10000.

B18: huNRG1(S177-F229)(NRGE1D) (E47S_D48S_F49E_M50L) 6xHis (ligand)
chain: SHLVKCGESHKSFCVNGGECYMVEGSSIPSRYLCKCPNEFTGDRCQSSELASFGGGGEGGGGAGGGGHHHHHH
As to B18, the Schwann cells (SC) (ErbB3) Avg EC50 in experiment [1] was found to be 10 µM. Moreover, in experiment [2], the CM % Agonism AVG came out at 96%, the Cardiomyocyte (CM) (ErbB4) Avg EC50 turned out to be 557 pM and the Selectivity SC/CM was greater than 10000.

B19: huNRG1(S177-F229)(NRGE1C) (E47A_D48P_F49H_M50I) 6xHis (ligand)
chain: SHLVKCGEKHKSFCVNGGECFMIEGPSNPSRYLCKCPNEFTGDRCQAPHIASFGGGGEGGGGAGGGGHHHHHH
Consider B19, for which, in experiment [1], the Schwann cells (SC) (ErbB3) Avg EC50 was determined as 10 µM. In experiment [2], this molecule came in with a CM % Agonism AVG of 96.5%, a Cardiomyocyte (CM) (ErbB4) Avg EC50 of 1100 pM and a Selectivity SC/CM greater than 10000.
